The text below walks through data of article PMC6111544, “Development of a Novel Q-body Using an In Vivo Site-Specific Unnatural Amino Acid Incorporation System” (Sensors (Basel, Switzerland), 2018).

The target of test [1] is T1, Nef protein (HIV-1 NL43), wild type (HIV-1 NL4-3 (NL43), strain).
T1 chain: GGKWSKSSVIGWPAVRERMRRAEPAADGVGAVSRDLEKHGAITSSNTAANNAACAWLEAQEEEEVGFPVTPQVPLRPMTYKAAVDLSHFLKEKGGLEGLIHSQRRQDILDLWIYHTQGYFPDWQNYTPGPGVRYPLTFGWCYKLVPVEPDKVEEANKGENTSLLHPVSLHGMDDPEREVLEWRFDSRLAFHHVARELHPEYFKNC

Test [2] addresses T1, Nef protein (HIV-1 NL43), wild type. The test is described as follows: far-Western, overlay or dot blot; Western blotting: Nef wt and Nef Δ2-11 resolved by SDS-PAGE, transferred to PVDF, probed with the anti-Nef antibody, detected with anti-streptavidin IgG-HRP; anti-His-tag antibody as control. Particulars: both partners purified.

Where two headings read alike, the source gives them in different places.

B1: anti-Nef (antibody, V domains shown)
VH: QVQLQQSGAELVKPGASVKLSCTASGFNIKDTYMHWVKQRPEQGLEWIGRIDPANGNTKYDPKFQGKATITADTSSNTAYLQLSSLTSEDTAVYYCASYYGIYWGQGTTLTVSS
VL: DIKMTQSPSSLSASLGERVSLTCRASQEISGYLSWLQQKPDGTIKRLIYAVSTLDSGVPKRFSGSRSGSDYSLTISSLESEDFADYYCLQYATYPLTFGAGTKLELK
Turning to B1, the binding result in test [1] is reported as “binds”.

B2: anti-Nef antibody (single-chain variable fragment for which the antigen is HIV Nef protein) (scFv, V domains shown)
VH: EVKLVESGAELVRPGASVKLSCTASGFNIKDDYMHWVKQRPEQGLEWIGWIDPENGDTEYASKFQGKATITADTSSNTAYLQLSSLTSEDTAVYYCTTRDVWGAGTTVTVMA
VL: B1 VL
notes: scFv isolated in vitro from a constructed mouse antibody library; Section 2.4 describes expression in E. coli MV1184 and purification on an IgG-conjugated column for the antibody vectors; also called wt anti-Nef antibody; scFv
With B2, the binding result in test [2] was “binds”.
